This note sets out measurements from article doi:10.1101/2023.10.15.562437, “The guide RNA sequence dictates the slicing kinetics and conformational dynamics of the Argonaute silencing complex”.

Data set [1] addresses T1, AGO2 D669A (UniProt Q9UKV8 1-859, D669A). Description: hydroxyl-radical footprinting; elevated reactivity at 9-11; Footprinting: 18 mM HEPES pH 7.4, 100 mM KOAc, 1.2 mM Mg(OAc)2, 0.015 mg/mL BSA, 0.0015 mg/mL yeast tRNA, 0.01% IGEPAL, 8.75 mM DTT, 37 C; filter binding (titra). Conditions: protein: recombinant; tags: N-terminal 3xFLAG; label: 32P 5' end of guide; complementary up to guide position 16.

The target of data set [2] is T1, AGO2 D669A. Description: hydroxyl-radical footprinting; peaks at 9-11; same at 1, 4 and 15 min; Footprinting: 18 mM HEPES pH 7.4, 100 mM KOAc, 1.2 mM Mg(OAc)2, 0.015 mg/mL BSA, 0.0015 mg/mL yeast tRNA, 0.01% IGEPAL, 8.75 mM DTT, 37 C; filter binding (titra). Conditions: protein: recombinant; tags: N-terminal 3xFLAG; label: 32P 5' end of guide; guide paired to internal site of longer target.

T1 sequence (Q9UKV8 whole entry D669A): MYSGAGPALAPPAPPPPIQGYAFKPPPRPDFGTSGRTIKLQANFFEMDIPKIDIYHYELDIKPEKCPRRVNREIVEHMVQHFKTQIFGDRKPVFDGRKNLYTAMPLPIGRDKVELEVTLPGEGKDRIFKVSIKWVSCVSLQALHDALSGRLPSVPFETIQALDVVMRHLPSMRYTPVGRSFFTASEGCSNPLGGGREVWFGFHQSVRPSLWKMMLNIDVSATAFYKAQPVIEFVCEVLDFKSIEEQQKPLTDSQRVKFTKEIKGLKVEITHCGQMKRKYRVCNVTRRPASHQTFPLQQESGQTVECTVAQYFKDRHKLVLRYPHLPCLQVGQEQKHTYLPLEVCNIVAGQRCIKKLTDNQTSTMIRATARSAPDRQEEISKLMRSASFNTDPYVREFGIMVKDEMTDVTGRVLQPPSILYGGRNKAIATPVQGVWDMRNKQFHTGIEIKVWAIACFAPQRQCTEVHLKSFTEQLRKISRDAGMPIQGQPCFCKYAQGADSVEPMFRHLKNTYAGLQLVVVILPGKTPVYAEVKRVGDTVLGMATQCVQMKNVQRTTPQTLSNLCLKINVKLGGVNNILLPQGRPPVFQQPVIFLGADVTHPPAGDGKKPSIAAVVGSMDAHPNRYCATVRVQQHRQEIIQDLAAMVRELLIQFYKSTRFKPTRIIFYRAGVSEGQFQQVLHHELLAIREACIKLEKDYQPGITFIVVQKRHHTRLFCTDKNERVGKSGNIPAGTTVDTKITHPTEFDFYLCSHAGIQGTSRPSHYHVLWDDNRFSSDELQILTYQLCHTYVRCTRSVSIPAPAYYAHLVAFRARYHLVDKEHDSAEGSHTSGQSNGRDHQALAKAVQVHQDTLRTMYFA

B1: miR-124 guide + 16-bp target (dsRNA)
RNA 1: UAAGGCACGCGGUGAAUGCCAA
RNA 2: GGGAACAACAACAACAACAACAACAACAACAAAAUUUUUUCACCGCGUGCCUUAAACAACAACAACAACA
modifications: guide 5' phosphate
In the case of B1, the binding result in the data set with AGO2 D669A [1] is “binds”.

B2: miR-196a guide + perfect target (dsRNA)
RNA 1: UAGGUAGUUUCAUGUUGUUGGG
RNA 2: GGGAACAACAACAACAACAACAACAACAACAACCCAACAACAUGAAACUACCUAAACAACAACAACAACA
modifications: guide 5' phosphate
Turning to B2, in the data set with AGO2 D669A [2], the binding result is on record as “binds”.
